{
  "source": "paper PMC11599015",
  "about": "(Viruses, 2024)",
  "binders": {"B1": {"name": "C-terminal domain of RABV phosphoprotein P (PCTD) (domain or fragment)", "chain": "WSATNEEDDLSVEAEIAHQIAESFSKKYKFPSRSSGIFLYNFEQLKMNLDDIVKEAKNVPGVTRLAHDGSKIPLRCVLGWVALANSKKFQLLVEADKLSKIMQDDLNRYTSC"}},
  "molecular_target": "recombinant circular RABV N10-RNA complex purified from insect cells (phosphorylated) (rabies virus (RABV), UniProt Q8JXF6 1-450)",
  "sequence (Q8JXF6 whole entry, one chain of several)": "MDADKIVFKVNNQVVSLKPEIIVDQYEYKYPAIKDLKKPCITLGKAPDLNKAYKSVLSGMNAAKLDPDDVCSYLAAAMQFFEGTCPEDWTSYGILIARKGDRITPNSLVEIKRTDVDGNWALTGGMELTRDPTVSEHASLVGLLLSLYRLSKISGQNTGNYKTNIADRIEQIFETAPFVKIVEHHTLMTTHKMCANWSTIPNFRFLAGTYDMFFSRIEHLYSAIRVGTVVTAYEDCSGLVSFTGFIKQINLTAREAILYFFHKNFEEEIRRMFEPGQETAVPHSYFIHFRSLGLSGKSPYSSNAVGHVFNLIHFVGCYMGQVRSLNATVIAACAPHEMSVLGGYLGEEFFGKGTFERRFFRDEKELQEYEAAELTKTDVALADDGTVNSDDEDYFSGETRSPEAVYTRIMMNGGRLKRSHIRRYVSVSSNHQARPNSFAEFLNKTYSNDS",
  "assay": "SPR",
  "settings": "both partners purified",
  "data": [
    {"binder": "B1", "values": [
      {"measurement": "Kd", "value": "160 ± 20", "unit": "nM"},
      {"measurement": "stoichiometry N", "value": "2 ± 0.2"}
    ]}
  ]
}
